Reference: paper PMC3991886, “Characterization of single-stranded DNA-binding proteins from the psychrophilic bacteria Desulfotalea psychrophila, Flavobacterium psychrophilum, Psychrobacter arcticus, Psychrobacter cryohalolentis, Psychromonas ingrahamii, Psychroflexus torquis, and Photobacterium profundum” (BMC Microbiology, 2014)

Assays:
[1] = target: Psychromonas ingrahamii single-stranded DNA-binding protein (Psychromonas ingrahamii); test: sedimentation in glycerol gradient; linear 15 to 30% (w/v) glycerol gradients in 50 mM Tris-HCl pH 7.5, 0.5 M NaCl, 1 mM EDTA, 5 mM beta-mercaptoethanol; 50 ul of 300 uM SSB; SW 60 rotor, 46,000 rpm, 24 h, 4°C; fractions by SDS-PAGE; compared with standard proteins, EcoSSB and PhaSSB
[2] = target: Psychromonas ingrahamii single-stranded DNA-binding protein (Psychromonas ingrahamii); test: SEC; analytical gel filtration, Superdex 200 10/300 GL, 20 mM Tris-HCl pH 7.5, 150 mM NaCl, 10 mM EDTA, 0.5 ml/min; mass from a regression curve of standard proteins
[3] = target: Psychromonas ingrahamii single-stranded DNA-binding protein (Psychromonas ingrahamii); test: cross-linking; 0.5% (v/v) glutaraldehyde, 15 min, 25°C, 10, 50 or 100 pmol SSB; quenched with 1 M Tris-HCl pH 8.0; SDS-PAGE (12%)
[4] = target: Desulfotalea psychrophila single-stranded DNA-binding protein (Desulfotalea psychrophila); test: sedimentation in glycerol gradient; linear 15 to 30% (w/v) glycerol gradients in 50 mM Tris-HCl pH 7.5, 0.5 M NaCl, 1 mM EDTA, 5 mM beta-mercaptoethanol; 50 ul of 300 uM SSB; SW 60 rotor, 46,000 rpm, 24 h, 4°C; fractions by SDS-PAGE; compared with standard proteins, EcoSSB and PhaSSB
[5] = target: Desulfotalea psychrophila single-stranded DNA-binding protein (Desulfotalea psychrophila); test: SEC; analytical gel filtration, Superdex 200 10/300 GL, 20 mM Tris-HCl pH 7.5, 150 mM NaCl, 10 mM EDTA, 0.5 ml/min; mass from a regression curve of standard proteins
[6] = target: Desulfotalea psychrophila single-stranded DNA-binding protein (Desulfotalea psychrophila); test: cross-linking; 0.5% (v/v) glutaraldehyde, 15 min, 25°C, 10, 50 or 100 pmol SSB; quenched with 1 M Tris-HCl pH 8.0; SDS-PAGE (12%)
[7] = target: Psychroflexus torquis single-stranded DNA-binding protein (Psychroflexus torquis); test: sedimentation in glycerol gradient; linear 15 to 30% (w/v) glycerol gradients in 50 mM Tris-HCl pH 7.5, 0.5 M NaCl, 1 mM EDTA, 5 mM beta-mercaptoethanol; 50 ul of 300 uM SSB; SW 60 rotor, 46,000 rpm, 24 h, 4°C; fractions by SDS-PAGE; compared with standard proteins, EcoSSB and PhaSSB
[8] = target: Psychroflexus torquis single-stranded DNA-binding protein (Psychroflexus torquis); test: SEC; analytical gel filtration, Superdex 200 10/300 GL, 20 mM Tris-HCl pH 7.5, 150 mM NaCl, 10 mM EDTA, 0.5 ml/min; mass from a regression curve of standard proteins
[9] = target: Psychroflexus torquis single-stranded DNA-binding protein (Psychroflexus torquis); test: cross-linking; 0.5% (v/v) glutaraldehyde, 15 min, 25°C, 10, 50 or 100 pmol SSB; quenched with 1 M Tris-HCl pH 8.0; SDS-PAGE (12%)
[10] = target: Psychrobacter cryohalolentis single-stranded DNA-binding protein (Psychrobacter cryohalolentis); test: sedimentation in glycerol gradient; linear 15 to 30% (w/v) glycerol gradients in 50 mM Tris-HCl pH 7.5, 0.5 M NaCl, 1 mM EDTA, 5 mM beta-mercaptoethanol; 50 ul of 300 uM SSB; SW 60 rotor, 46,000 rpm, 24 h, 4°C; fractions by SDS-PAGE; compared with standard proteins, EcoSSB and PhaSSB
[11] = target: Psychrobacter cryohalolentis single-stranded DNA-binding protein (Psychrobacter cryohalolentis); test: SEC; analytical gel filtration, Superdex 200 10/300 GL, 20 mM Tris-HCl pH 7.5, 150 mM NaCl, 10 mM EDTA, 0.5 ml/min; mass from a regression curve of standard proteins
[12] = target: Psychrobacter cryohalolentis single-stranded DNA-binding protein (Psychrobacter cryohalolentis); test: cross-linking; 0.5% (v/v) glutaraldehyde, 15 min, 25°C, 10, 50 or 100 pmol SSB; quenched with 1 M Tris-HCl pH 8.0; SDS-PAGE (12%)
[13] = target: Psychrobacter arcticus single-stranded DNA-binding protein (Psychrobacter arcticus) (UniProt Q4FR27); test: sedimentation in glycerol gradient; linear 15 to 30% (w/v) glycerol gradients in 50 mM Tris-HCl pH 7.5, 0.5 M NaCl, 1 mM EDTA, 5 mM beta-mercaptoethanol; 50 ul of 300 uM SSB; SW 60 rotor, 46,000 rpm, 24 h, 4°C; fractions by SDS-PAGE; compared with standard proteins, EcoSSB and PhaSSB
[14] = target: Psychrobacter arcticus single-stranded DNA-binding protein (Psychrobacter arcticus) (UniProt Q4FR27); test: SEC; analytical gel filtration, Superdex 200 10/300 GL, 20 mM Tris-HCl pH 7.5, 150 mM NaCl, 10 mM EDTA, 0.5 ml/min; mass from a regression curve of standard proteins
[15] = target: Psychrobacter arcticus single-stranded DNA-binding protein (Psychrobacter arcticus) (UniProt Q4FR27); test: cross-linking; 0.5% (v/v) glutaraldehyde, 15 min, 25°C, 10, 50 or 100 pmol SSB; quenched with 1 M Tris-HCl pH 8.0; SDS-PAGE (12%)
[16] = system: DpsSSB (Desulfotalea psychrophila LSv54 (DSM 12343)); test: fluorescence titration; conditions: 2-300 mM NaCl, site size 31 ± 2 nt, EMSA: 20 mM Tris-HCl pH 8.0, 100 mM NaCl, 1 mM EDTA, 25 C, 2% agarose in TAE, fluorescence titration: 20 mM Tris-HCl pH 8.0, 1 mM EDTA, 2/100/300 mM NaCl
[17] = target: Photobacterium profundum single-stranded DNA-binding protein (Photobacterium profundum) (UniProt Q6LM83); test: sedimentation in glycerol gradient; linear 15 to 30% (w/v) glycerol gradients in 50 mM Tris-HCl pH 7.5, 0.5 M NaCl, 1 mM EDTA, 5 mM beta-mercaptoethanol; 50 ul of 300 uM SSB; SW 60 rotor, 46,000 rpm, 24 h, 4°C; fractions by SDS-PAGE; compared with standard proteins, EcoSSB and PhaSSB
[18] = target: Photobacterium profundum single-stranded DNA-binding protein (Photobacterium profundum) (UniProt Q6LM83); test: SEC; analytical gel filtration, Superdex 200 10/300 GL, 20 mM Tris-HCl pH 7.5, 150 mM NaCl, 10 mM EDTA, 0.5 ml/min; mass from a regression curve of standard proteins
[19] = target: Photobacterium profundum single-stranded DNA-binding protein (Photobacterium profundum) (UniProt Q6LM83); test: cross-linking; 0.5% (v/v) glutaraldehyde, 15 min, 25°C, 10, 50 or 100 pmol SSB; quenched with 1 M Tris-HCl pH 8.0; SDS-PAGE (12%)
[20] = target: the molecule itself; test: SEC; analytical gel filtration, Superdex 200 10/300 GL, 20 mM Tris-HCl pH 7.5, 150 mM NaCl, 10 mM EDTA, 0.5 ml/min; mass from a regression curve of standard proteins
[21] = target: the molecule itself; test: cross-linking; 0.5% (v/v) glutaraldehyde, 15 min, 25°C, 10, 50 or 100 pmol SSB; quenched with 1 M Tris-HCl pH 8.0; SDS-PAGE (12%)
PinSSB = target: T1, PinSSB (Psychromonas ingrahamii 37 (DSM 17664), UniProt A1T012 1-1+=G+2-222, internal_change); test: EMSA; complex I only; EMSA: 20 mM Tris-HCl pH 8.0, 100 mM NaCl, 1 mM EDTA, 25 C, 2% agarose in TAE; fluorescence titration: 20 mM Tris-HCl pH 8.0, 1 mM EDTA, 2/100/300 mM NaCl, 25 C; conditions: protein: recombinant; tags: none (stop codon in reverse primer); chain copies: 4; label: 5'-fluorescein
T1 sequence: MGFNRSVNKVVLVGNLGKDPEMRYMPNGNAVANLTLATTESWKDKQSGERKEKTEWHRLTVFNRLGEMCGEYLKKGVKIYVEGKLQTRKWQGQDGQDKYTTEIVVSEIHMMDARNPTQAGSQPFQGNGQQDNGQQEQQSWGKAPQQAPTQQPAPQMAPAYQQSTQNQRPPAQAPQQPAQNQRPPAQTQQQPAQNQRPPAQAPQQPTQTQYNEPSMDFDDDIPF

PtoSSB = target: T2, PtoSSB (Psychroflexus torquis ATCC 700755 (LMG …, UniProt K4IS14 1-151)); test: as above; conditions: protein: recombinant; tags: none (stop codon in reverse primer); chain copies: 4; label: 5'-fluorescein
T2 sequence: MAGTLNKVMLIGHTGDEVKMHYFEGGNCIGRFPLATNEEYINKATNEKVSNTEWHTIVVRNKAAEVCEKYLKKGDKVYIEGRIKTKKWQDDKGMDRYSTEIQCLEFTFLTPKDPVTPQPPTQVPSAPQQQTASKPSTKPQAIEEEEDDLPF

PprSSB = target: T3, PprSSB (Photobacterium profundum (LMG 19446), UniProt Q6LM83 5-187); test: as above; conditions: protein: recombinant; tags: none (stop codon in reverse primer); chain copies: 4; label: 5'-fluorescein
T3 sequence: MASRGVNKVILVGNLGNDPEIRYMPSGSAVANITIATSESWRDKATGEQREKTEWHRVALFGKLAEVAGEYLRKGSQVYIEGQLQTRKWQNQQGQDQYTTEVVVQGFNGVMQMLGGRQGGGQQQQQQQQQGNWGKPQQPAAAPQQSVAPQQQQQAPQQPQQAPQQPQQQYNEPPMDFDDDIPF

PcrSSB = target: T4, PcrSSB (Psychrobacter cryohalolentis K5 (DSM …, UniProt Q1Q9B8 1-1+=G+2-219, internal_change)); test: as above; conditions: protein: recombinant; tags: none (stop codon in reverse primer); chain copies: 4; label: 5'-fluorescein
T4 sequence: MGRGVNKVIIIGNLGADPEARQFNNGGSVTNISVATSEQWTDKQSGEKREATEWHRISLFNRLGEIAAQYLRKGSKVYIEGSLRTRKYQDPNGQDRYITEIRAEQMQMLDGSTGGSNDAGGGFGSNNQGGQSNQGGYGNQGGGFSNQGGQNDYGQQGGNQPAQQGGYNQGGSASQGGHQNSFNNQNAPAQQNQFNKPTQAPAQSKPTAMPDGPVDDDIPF

With “Psychromonas ingrahamii single-stranded DNA-binding protein (natural protein)” the stoichiometry N [1] was 4, the stoichiometry N (mass monomers) [2] was 4.1 and the stoichiometry N [3] was 4.

For “Desulfotalea psychrophila single-stranded DNA-binding protein (natural protein)”, the stoichiometry N [4] was 4, the stoichiometry N [5] was 3.8 mass monomer and the stoichiometry N [6] was 4.

With “Psychroflexus torquis single-stranded DNA-binding protein (natural protein)” the stoichiometry N [7] was 4, the stoichiometry N (mass monomers) [8] was 4.2 and the stoichiometry N [9] was 4.

With “Psychrobacter cryohalolentis single-stranded DNA-binding protein (natural protein)” the stoichiometry N [10] was 4, the stoichiometry N (mass monomers) [11] was 4.1 and the stoichiometry N [12] was 4.

“Psychrobacter arcticus single-stranded DNA-binding protein (from UniProt Q4FR27 1-213) (natural protein)” was tested, and the stoichiometry N [13] was 4, the stoichiometry N (mass monomers) [14] was 4.1 and the stoichiometry N [15] was 4.

Work on “TTTTTTTTTTTTTTTTTTTTTTTTTTTTTTTTTTTTTTTTTTTTTTTTTTTTTTTTTTTTTTTTTTTTTTTTTTTT [(dT)76]” yielded a binding signal (% Trp fluorescence quench at saturation) [16] of 93.

With “Photobacterium profundum single-stranded DNA-binding protein (from UniProt Q6LM83 1-187) (natural protein)” the stoichiometry N [17] was 4, the stoichiometry N (mass monomers) [18] was 4.2 and the stoichiometry N [19] was 4.

B1: Flavobacterium psychrophilum single-stranded DNA-binding protein (natural protein)
chain: MGNGTLNKVMLIGHLGEDIKMHYFDGGNCIGRFPLATNEIYINKSTNEKITSTEWHNVVVRNKAAEICEKYLSKGDKIYVEGRIKSRQWQAEDGTVKYTTEIQVTEFTFLNTKKDSEIVKTASEAPKTTSFDSTVENDLPF
notes: SSB of Flavobacterium psychrophilum JIP02/86 (LMG 13180), 140 amino acid residues including the N-terminal methionine, 15.9 kDa monomer; Cloned in pBAD/myc-HisA between NcoI and HindIII; the reverse primer carries the gene's stop codon, so the vector's C-terminal myc-His tag is probably not on the protein (surmised); The forward primer has two G that are not complementary to the gene, which adds …
B1 was tested, and the “stoichiometry N” value [20] was 4.4 mass monomer and the “stoichiometry N” value [21] was 4.

B2: (dT)35 (ssDNA)
DNA: TTTTTTTTTTTTTTTTTTTTTTTTTTTTTTTTTTT
B2: binds (PinSSB); binds (PtoSSB); binds (PprSSB). B2: binds (PcrSSB).
